{
  "source": "paper PMC4103857",
  "about": "“Specific Interaction with Cardiolipin Triggers Functional Activation of Dynamin-Related Protein 1” (PLoS ONE, 2014)",
  "key": {"[1]": {"molecular_target": "Dynamin-Related Protein 1 (Drp1) isoform 2 (human)", "assay": "SEC; gel filtration of the purified untagged isoforms; data not shown"}, "[2]": {"molecular_target": "the molecule itself", "assay": "SEC; gel filtration of the purified untagged isoforms; data not shown"}, "[3]": {"molecular_target": "the molecule itself", "assay": "SEC; Drp1 (1 uM) incubated with GTP (1 mM) without liposomes in KCl buffer with 4 mM MgCl2, 30 min, 37 C; Sephadex S200; fractions immunoblotted with anti-Drp1"}},
  "note": "“And” between values parts separate entries of the source, which are not always exact repeats. Equal entries are not always repeated.",
  "data": [
    {"molecule": "Dynamin-Related Protein 1 (Drp1) isoform 2 (natural protein)", "values": [
      {"measurement": "stoichiometry N", "setting": "[1]", "result": "2 and 4"}
    ]},
    {"molecule": "Dynamin-Related Protein 1 (Drp1) isoform 3 (natural protein, human, UniProt O00429-4 1-699, looked up, ORF amplified by PCR and cloned into pTYB1; numbers count on: isoform 3; also called Variant 3; Isoform-3 WT; source: E. coli Rosetta, purified (chitin resin with thiol-induced cleavage, Q sepharose, Sephadex S200)) MEALIPVINKLQDVFNTVGADIIQLPQIVVVGTQSSGKSSVLESLVGRDLLPRGTGIVTRRPLILQLVHVSQEDKRKTTGEENGVEAEEWGKFLHTKNKLYTDFDEIRQEIENETERISGNNKGVSPEPIHLKIFSPNVVNLTLVDLPGMTKVPVGDQPKDIELQIRELILRFISNPNSIILAVTAANTDMATSEALKISREVDPDGRRTLAVITKLDLMDAGTDAMDVLMGRVIPVKLGIIGVVNRSQLDINNKKSVTDSIRDEYAFLQKKYPSLANRNGTKYLARTLNRLLMHHIRDCLPELKTRINVLAAQYQSLLNSYGEPVDDKSATLLQLITKFATEYCNTIEGTAKYIETSELCGGARICYIFHETFGRTLESVDPLGGLNTIDILTAIRNATGPRPALFVPEVSFELLVKRQIKRLEEPSLRCVELVHEEMQRIIQHCSNYSTQELLRFPKLHDAIVEVVTCLLRKRLPVTNEMVHNLVAIELAYINTKHPDFADACGLMNNNIEEQRRNRLARELPSAVSRDKVASGGGGVGDGVQEPTTGNWRGMLKTSKAEELLAEEKSKPIPIMPASPQKGHAVNLLDVPVPVARKLSAREQRDCEVIERLIKSYFLIVRKNIQDSVPKAVMHFLVNHVKDTLQSELVGQLYKSSLLDDLLTESEDMAQRRKEAADMLKALQGASQIIAEIRETHLW", "values": [
      {"measurement": "stoichiometry N", "setting": "[2]", "result": "2 and 4"}
    ]},
    {"molecule": "Drp1 isoform 3 K557-560-569-571A (4KA mutant) (natural protein, human, UniProt O00429-4 1-699, looked up, Dynamin-related protein 1 (Drp1), human, splice variant 3 (lacking 37 residues in the B insert), all four B insert lysines replaced by alanine; numbers count on: isoform 3; also called Drp1-4KA; Drp1 4KA mutant; source: E. coli Rosetta, purified (chitin resin with thiol-induced cleavage, Q sepharose, Sephadex S200)) MEALIPVINKLQDVFNTVGADIIQLPQIVVVGTQSSGKSSVLESLVGRDLLPRGTGIVTRRPLILQLVHVSQEDKRKTTGEENGVEAEEWGKFLHTKNKLYTDFDEIRQEIENETERISGNNKGVSPEPIHLKIFSPNVVNLTLVDLPGMTKVPVGDQPKDIELQIRELILRFISNPNSIILAVTAANTDMATSEALKISREVDPDGRRTLAVITKLDLMDAGTDAMDVLMGRVIPVKLGIIGVVNRSQLDINNKKSVTDSIRDEYAFLQKKYPSLANRNGTKYLARTLNRLLMHHIRDCLPELKTRINVLAAQYQSLLNSYGEPVDDKSATLLQLITKFATEYCNTIEGTAKYIETSELCGGARICYIFHETFGRTLESVDPLGGLNTIDILTAIRNATGPRPALFVPEVSFELLVKRQIKRLEEPSLRCVELVHEEMQRIIQHCSNYSTQELLRFPKLHDAIVEVVTCLLRKRLPVTNEMVHNLVAIELAYINTKHPDFADACGLMNNNIEEQRRNRLARELPSAVSRDKVASGGGGVGDGVQEPTTGNWRGMLATSAAEELLAEEASAPIPIMPASPQKGHAVNLLDVPVPVARKLSAREQRDCEVIERLIKSYFLIVRKNIQDSVPKAVMHFLVNHVKDTLQSELVGQLYKSSLLDDLLTESEDMAQRRKEAADMLKALQGASQIIAEIRETHLW", "values": [
      {"measurement": "binding result", "setting": "[3]", "result": "binds"}
    ]}
  ]
}
